Measurements taken from publication PMC6929975, “A supramolecular protein chaperone for vaccine delivery” (Theranostics, 2020).
Starred links: 1 amine or outer side, 2 acyl side, 3 side chain; linkers in the order of their positions; H or OH if unused. Non-standard residues stand in square brackets, D forms with d. Groups on a side chain read outwards from the residue. *: point of attachment. Fbp = flurbiprofen, CC(C(=O)*)c1ccc(-c2ccccc2)c(F)c1; γGlu = O=C(O)[C@H](CCC(=O)[*:2])N[*:1]

Legend:
[1] = target: Hepatitis B surface antigen (hepatitis B virus, UniProt P03138 1-389, fluorescent dye NT-647 (cysteine-reactive Monolith NT Protein Labelling Kit)); assay: MST; proteins labelled with NT-647 held at constant concentration; Comp. 1 or 2 varied from 0.25 μM to 10 mM; PBS with 0.05% Tween-20, pH 7.4; Monolith NT.115, standard glass capillaries; details: both partners purified
ovalbumin = target: T1, ovalbumin (UniProt P01012 1-386, fluorescent dye NT-647 (cysteine-reactive Monolith NT Protein Labelling Kit)); assay: as above; details: both partners purified
T1 construct: source: bought: InvivoGen (endotoxin free)
T1 sequence (looked up): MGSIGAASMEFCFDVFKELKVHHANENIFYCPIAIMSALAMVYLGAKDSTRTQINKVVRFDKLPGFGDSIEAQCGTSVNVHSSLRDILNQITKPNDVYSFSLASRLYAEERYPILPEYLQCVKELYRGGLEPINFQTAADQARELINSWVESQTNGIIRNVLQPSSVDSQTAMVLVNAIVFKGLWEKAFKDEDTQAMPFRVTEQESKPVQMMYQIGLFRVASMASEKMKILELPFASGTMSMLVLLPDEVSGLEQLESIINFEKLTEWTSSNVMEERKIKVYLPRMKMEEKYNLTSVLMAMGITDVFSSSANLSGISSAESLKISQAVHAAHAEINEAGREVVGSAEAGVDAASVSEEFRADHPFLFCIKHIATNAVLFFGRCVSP

B1: Fbp-G^DF^DF^DY^DK(γE)2-NH2 (peptide)
peptide: Fbp-G[dF][dF][dY][dK]([γGlu-γGlu])-NH2
SMILES: CC(C(=O)NCC(=O)N[C@H](Cc1ccccc1)C(=O)N[C@H](Cc1ccccc1)C(=O)N[C@H](Cc1ccc(O)cc1)C(=O)N[C@H](CCCCNC(=O)CC[C@H](NC(=O)CC[C@H](N)C(=O)O)C(=O)O)C(N)=O)c1ccc(-c2ccccc2)c(F)c1
notes: also called Comp; supramolecular protein chaperone; source: synthetic peptide (Fmoc SPPS on Rink resin, purified by HPLC)
Kd [1]: 68 µM
Kd (ovalbumin): 83.3 µM
